# T1: recombinant human VEGFR3/Fc chimera (human, UniProt P35916 25-775)
# T1 construct: Human VEGF receptor type 3, the soluble part fused to Fc; Commercial chimera, probably the extracellular domain on human IgG1 Fc; also called soluble VEGFR3/Fc chimera; source: bought: R&D Systems
# T1 sequence (looked up): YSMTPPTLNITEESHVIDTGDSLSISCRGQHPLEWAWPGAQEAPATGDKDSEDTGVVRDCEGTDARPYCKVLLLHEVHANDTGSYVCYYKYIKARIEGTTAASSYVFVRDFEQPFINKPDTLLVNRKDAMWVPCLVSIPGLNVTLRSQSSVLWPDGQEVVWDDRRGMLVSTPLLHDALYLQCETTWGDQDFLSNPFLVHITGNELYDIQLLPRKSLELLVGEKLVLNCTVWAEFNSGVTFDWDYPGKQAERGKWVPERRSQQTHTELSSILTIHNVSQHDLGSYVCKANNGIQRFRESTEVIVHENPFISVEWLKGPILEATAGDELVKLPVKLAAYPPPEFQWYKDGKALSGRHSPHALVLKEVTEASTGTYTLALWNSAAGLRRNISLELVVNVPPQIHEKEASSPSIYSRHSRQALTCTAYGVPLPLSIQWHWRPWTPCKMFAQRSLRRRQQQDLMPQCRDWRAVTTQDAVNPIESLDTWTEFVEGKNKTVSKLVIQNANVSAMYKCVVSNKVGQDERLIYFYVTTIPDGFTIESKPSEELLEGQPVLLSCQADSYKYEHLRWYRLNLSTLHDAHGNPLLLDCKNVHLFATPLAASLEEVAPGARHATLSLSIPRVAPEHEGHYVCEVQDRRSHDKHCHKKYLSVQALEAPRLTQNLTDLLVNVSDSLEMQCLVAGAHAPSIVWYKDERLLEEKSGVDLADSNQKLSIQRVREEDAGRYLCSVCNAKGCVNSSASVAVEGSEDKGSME
# Key:
# angiopoietin-1 = angiopoietin-1 (UniProt Q15389); assay: ELISA; Ang-1 coated on 96-well plates at 4 μg/ml in PBS; purified Tie1-751(6His) applied, 1.5 hours at room temperature, three rinses in PBS/0.05% Tween-20; detected with biotin-labeled extracellular domain-specific antibody
# [1] = target: T1, recombinant human VEGFR3/Fc chimera; assay: co-IP; competition in the solution binding of VEGF-D to VEGFR3-765-Myc: fivefold molar excess of recombinant human VEGFR3/Fc or VEGFR1/Fc chimera; immunoprecipitation with anti-VEGF-D, blot with anti-Myc; conditions: both partners purified
# Chain of angiopoietin-1 (Q15389 16-498): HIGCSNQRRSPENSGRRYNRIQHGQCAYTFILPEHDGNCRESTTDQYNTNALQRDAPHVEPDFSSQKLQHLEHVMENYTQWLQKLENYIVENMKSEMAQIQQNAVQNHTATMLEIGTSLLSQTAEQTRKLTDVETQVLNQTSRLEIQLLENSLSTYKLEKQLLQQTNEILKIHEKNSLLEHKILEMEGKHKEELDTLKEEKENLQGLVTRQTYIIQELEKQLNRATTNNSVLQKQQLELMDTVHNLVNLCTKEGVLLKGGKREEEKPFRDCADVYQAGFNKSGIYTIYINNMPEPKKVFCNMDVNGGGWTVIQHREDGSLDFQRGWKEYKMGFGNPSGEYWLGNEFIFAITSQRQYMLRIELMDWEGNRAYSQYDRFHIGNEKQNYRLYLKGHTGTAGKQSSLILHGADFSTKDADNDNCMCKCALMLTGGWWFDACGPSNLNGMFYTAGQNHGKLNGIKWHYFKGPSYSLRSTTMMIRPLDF
Kd (angiopoietin-1),binding result [1],Molecule
89 nM,–,Tie1-751(6His) (from UniProt P35590-1 22-740) (receptor)
–,binds,"VEGF-D (ligand, human, UniProt O43915 89-205, looked up, Human VEGF-D, bought recombinant protein; source: bought: R&D Systems) FAATFYDIETLKVIDEEWQRTQCSPRETCVEVASELGKSTNTFFKPPCVNVFRCGGCCNEESLICMNTSTSYISKQLFEISVPLTSVPELVPVKVANHTGCKCLPTAPRHPYSIIRR"

# From PMC2575619, “Novel splice variants derived from the receptor tyrosine kinase superfamily are potential therapeutics for rheumatoid arthritis” (Arthritis Research & Therapy, 2008)
